For orientation: EC50 means the concentration needed to bring the measured effect to its halfway point.

Assay [1] deals with T1, biotinylated CD47 IgV protein (Acrobiosystems) (human, UniProt Q08722 19-139, biotinylated (site not stated)).
T1 construct: domain: IgV; Bought from Acrobiosystems; also called biotinylated human CD47-IgV domain; Biotinylated CD47 protein
In words: ELISA, biotinylated CD47 protein (monomeric CD47-ECD) coated at 1 µg/mL, antibody titration. As to the method: Biotinylated CD47 protein (Acrobiosystems) was coated at 1 μg/mL in PBS onto microtiter plates for 2 hours at RT. After coating of antigen, the wells were blocked with PBS/0.05% Tween (PBST) with 1% BSA for 1 hour at RT. After washing of the wells with PBST, different concentrations of anti-CD47 antibodies were added to the wells and incubated for 1 hour at RT. For detection of the binding of the antibodies to CD47, the HRP conjugated secondary antibodies against human Fc (Jackson Immuno Research) were added followed by the addition of fluorogenic substrates (Roche). Between all incubation steps, the wells of the plate were washed with PBST three times. Fluorescence was measured in a TECAN Spectrafluor plate reader.

The target in assay [2] is T2, human CD47 (hCD47) expressed on the surface of cells (human, UniProt Q08722 19-323).
T2 construct: whole, on cells; also called CD47+ Raji cells; CD47 on tumor cell lines
As to the kind of experiment: Flow cytometry on Raji cells endogenously expressing human CD47. As to the method:
Raji cells, which endogenously express human CD47 on the surface, were stained with different concentrations of anti-CD47 antibodies at 4° C. for 30 minutes. Then, the cells were washed with PBS three times, followed by incubation with APC-labeled anti-human Fc specific antibody (Invitrogen) at 4° C. for 30 minutes. Binding was measured using a FACSCanto (Becton-Dickinson).
In general terms: Flow cytometry measures light scatter and fluorescence of single cells or particles in a stream.

The target of assay [3] is T3, Recombinant human CD47 IgV-Fc fusion protein (Acrobiosystems) (human, UniProt Q08722 19-139).
T3 construct: domain: IgV; Bought from Acrobiosystems; also called hCD47 IgV-Fc fusion protein; Recombinant CD47-Fc fusion protein
As to the kind of experiment: Competition ELISA: CD47-Fc coated, SIRPα-His 1 µg/mL as the blocked ligand, antibody titration. As to the method:
Recombinant CD47-Fc fusion protein (Acrobiosystems) was coated at 1 μg/ml in PBS onto microtiter plates for 16 hours at 4° C. […] Plates were subsequently washed three times and incubated with an HRP-conjugated anti-His secondary antibody for 1 hour at RT. After washing, the TMB solution was added to each well for 30 min and the reaction was stopped with 2M H₂SO₄, and OD was measured at […].

B1: reference anti-CD47 antibody 2A1 (antibody, V domains shown)
VH: EVQLQQSGAELVRSGASVKLSCTASGFNIKDYYLHWVKQRPEQGLEWIGWIDPDNGDTEFAPKFQGKATMTADTSSNTAYLQLSSLTSEDTAVYYCNAAYGSSSYPMDYWGQGTSVTV
VL: DIKMTQSPSSLYASLGERVTITCKASQDIHRYLSWFQQKPGKSPKILIYRANRLVDGVPSRFSGSGSGQDYSLTISSLEYEDMGIYYCLQYDEFPYTFGGGTKLEMK
B1: the EC50 in assay [1] was determined as 0.25 nM.

B2: anti-CD47 antibody B2B (antibody, human IgG4 S228P, kappa, V domains shown)
VH: EVQLVESGGGLVKPGGSLRLSCAASGLTFERAWMNWVRQAPGKGLEWVGRIKRKTDGETTDYAAPVKGRFSISRDDSKNTLYLQMNSLKTEDTAVYYCAGSNRAFDIWGQGTMVTVSS
VL: DIVMTQSPDSLAVSLGERATINCKSSQSVLYAGNNRNYLAWYQQKPGQPPKLLINQASTRASGVPDRFSGSGSGTEFTLIISSLQAEDVAIYYCQQYYTPPLAFGGGTKLEIKR
notes: also called lemzoparlimab; TJ011133
Take B2: the EC50 in assay [1] turned out to be 0.09 nM; in assay [2] it was 0.12 nM; in assay [3], 0.18 nM.

Source of the values: US20230399400A1 (I MAB BIOPHARMA, published 2023).
